Legend:
HLA-A*03:01 [1] = experiment: IEDB peptide-MHC binding, purified MHC/competitive/fluorescence; ≥ and ≤ were set here for values at or beyond the usual limits of such assays
HLA-A*11:01 = experiment: as above
HLA-A*24:02 = experiment: as above; conditions: source organism: Zaire ebolavirus
HLA-A*01:01 = experiment: IEDB peptide-MHC binding, purified MHC/direct/fluorescence; filed as Kd, often an IC50 or EC50 that approximates it; ≥ and ≤ were set here for values at or beyond the usual limits of such assays; conditions: source organism: Mammarenavirus juninense
HLA-A*29:02 = experiment: as above
HLA-A*02:01 [2] = experiment: IEDB peptide-MHC binding, purified MHC/competitive/fluorescence; ≥ and ≤ were set here for values at or beyond the usual limits of such assays
HLA-A*02:03 = experiment: IEDB peptide-MHC binding, purified MHC/direct/fluorescence; filed as Kd, often an IC50 or EC50 that approximates it; ≥ and ≤ were set here for values at or beyond the usual limits of such assays; conditions: source organism: Oran virus
HLA-A*02:11 = experiment: as above; conditions: source organism: Oran virus
HLA-A*02:12 = experiment: as above; conditions: source organism: Oran virus
HLA-A*02:16 = experiment: as above; conditions: source organism: Oran virus
HLA-A*02:19 = experiment: as above; conditions: source organism: Oran virus
HLA-A*03:01 [3] = experiment: as above; conditions: source organism: Oran virus
HLA-A*24:03 = experiment: as above; conditions: source organism: Oran virus
HLA-A*68:02 = experiment: as above; conditions: source organism: Oran virus
HLA-B*07:02 = experiment: as above; conditions: source organism: Oran virus
HLA-A*02:01 [4] = experiment: IEDB peptide-MHC binding, purified MHC/competitive/fluorescence; filed as Kd, often an IC50 or EC50 that approximates it; ≥ and ≤ were set here for values at or beyond the usual limits of such assays; conditions: source organism: Orthohantavirus andesense
HLA-A*26:01 = experiment: as above; conditions: source organism: Orthohantavirus andesense
HLA-A*69:01 = experiment: as above; conditions: source organism: Orthohantavirus andesense
HLA-B*15:01 = experiment: as above; conditions: source organism: Orthohantavirus andesense
HLA-B*15:17 = experiment: as above; conditions: source organism: Orthohantavirus andesense
HLA-B*18:01 = experiment: as above; conditions: source organism: Orthohantavirus andesense
HLA-B*27:03 = experiment: as above; conditions: source organism: Orthohantavirus andesense
HLA-B*35:01 = experiment: as above; conditions: source organism: Orthohantavirus andesense
HLA-B*39:01 = experiment: as above; conditions: source organism: Orthohantavirus andesense
HLA-B*46:01 = experiment: as above; conditions: source organism: Orthohantavirus andesense
HLA-B*51:01 = experiment: as above; conditions: source organism: Orthohantavirus andesense
HLA-B*57:01 = experiment: as above; conditions: source organism: Orthohantavirus andesense
[5] = source organism: Zaire ebolavirus
[6] = source organism: Sudan ebolavirus

AFLILPQAK was tested, and the IC50 (HLA-A*03:01 [1]; [5]) was 20 µM, the IC50 (HLA-A*11:01; [5]) was 14.1 µM and the IC50 (HLA-A*24:02) was 26.9 µM.
With HTEFQTVSF the Kd (HLA-A*01:01) was 2.29 µM and the Kd (HLA-A*29:02; source organism: Mammarenavirus juninense) was ≥ 20 µM.
In the case of ILGSLGLRK, the IC50 (HLA-A*02:01 [2]; [6]) is reported as ≥ 141 µM, the IC50 (HLA-A*03:01 [1]; [6]) is reported as 0.872 µM and the IC50 (HLA-A*11:01; [6]) is reported as 0.219 µM.
With IQNVPGPHR the IC50 (HLA-A*02:01 [2]; [5]) was ≥ 119 µM, the IC50 (HLA-A*03:01 [1]; [5]) was 8.53 µM and the IC50 (HLA-A*11:01; [5]) was 0.889 µM. The IC50 (HLA-A*24:02) was 6.86 µM.
In the case of KPKALSEAF, the Kd (HLA-A*02:03) is reported as ≥ 20 µM, the Kd (HLA-A*02:11) is reported as ≥ 20 µM and the Kd (HLA-A*02:12) is reported as ≥ 20 µM. The Kd (HLA-A*02:16) was ≥ 20 µM, the Kd (HLA-A*02:19) was ≥ 20 µM and the Kd (HLA-A*03:01 [3]) was ≥ 20 µM. For the same sequence, the Kd (HLA-A*24:03) was ≥ 20 µM, the Kd (HLA-A*29:02; source organism: Oran virus) was ≥ 20 µM and the Kd (HLA-A*68:02) was ≥ 20 µM. For the same sequence, the Kd (HLA-B*07:02) was 0.0765 µM, the Kd (HLA-A*02:01 [4]) was ≥ 20 µM and the Kd (HLA-A*26:01) was ≥ 20 µM. The Kd (HLA-A*69:01) was ≥ 20 µM, the Kd (HLA-B*15:01) was ≥ 20 µM and the Kd (HLA-B*15:17) was ≥ 20 µM. The Kd (HLA-B*18:01) was ≥ 20 µM, the Kd (HLA-B*27:03) was ≥ 20 µM and the Kd (HLA-B*35:01) was 0.0223 µM. The Kd (HLA-B*39:01) was ≥ 20 µM, the Kd (HLA-B*46:01) was ≥ 20 µM and the Kd (HLA-B*51:01) was ≥ 20 µM. The Kd (HLA-B*57:01) was ≥ 20 µM.

From the Immune Epitope Database (IEDB)
